According to US20210130452A1 (Merck KGaA, published 2021):
Changes are numbered by the printed parent chain.

T1: rat IL-17F (rat, UniProt Q5BJ95 29-161)
T1 sequence (looked up): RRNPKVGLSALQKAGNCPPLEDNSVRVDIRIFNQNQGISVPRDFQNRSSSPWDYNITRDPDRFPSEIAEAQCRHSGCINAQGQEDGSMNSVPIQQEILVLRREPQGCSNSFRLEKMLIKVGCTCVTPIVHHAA

T2: mouse IL-17F (mouse, UniProt Q7TNI7 29-161)
T2 sequence (looked up): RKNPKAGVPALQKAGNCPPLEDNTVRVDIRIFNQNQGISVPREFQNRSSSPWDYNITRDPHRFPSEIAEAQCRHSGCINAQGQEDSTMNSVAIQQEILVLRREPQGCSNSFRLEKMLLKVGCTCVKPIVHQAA

T3: marmoset IL-17A (marmoset, IL-17A is a disulfide-linked homodimer. One chain is given.)
T3 chain: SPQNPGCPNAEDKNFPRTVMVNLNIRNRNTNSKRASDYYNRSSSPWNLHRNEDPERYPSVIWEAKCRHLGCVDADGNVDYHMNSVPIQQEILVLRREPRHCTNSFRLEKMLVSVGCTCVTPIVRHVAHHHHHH

T4: human IL-17F (human, UniProt Q96PD4 31-163, biotinylated with Sulfo-NHS-LC-Biotin in the AlphaScreen assays only)
T4 construct: also called hIL-17F; recombinant human IL-17F
T4 sequence: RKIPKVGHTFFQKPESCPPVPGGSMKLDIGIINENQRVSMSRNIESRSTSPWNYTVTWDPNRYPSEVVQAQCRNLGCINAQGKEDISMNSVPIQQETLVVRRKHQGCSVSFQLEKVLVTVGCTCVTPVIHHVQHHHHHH

B1: 09G10 (VHH)
VHH: EVQLVESGGGLVQAGGSLRLSCAASDSVFTAKAVGWYRQPPGLQREWVAIITSGGKTNYADSSVKGRFTVSVDKVKNTVTLQMNSLKPEDTAVYYCYAQWMGRDYWGQGTQVTVSS
notes: Class 2 Nanobody (anti-IL-17A and IL-17A/F); not shown: c-myc, His6 tag
B2: 13E05 (VHH)
VHH: EVQLVESGGGKVQAGDSLTLSCVASGGTFSNYAAWFRQAPGKDRRELVVSIFRTGSITYTADSVKGRFTASRVNTKNTVYLQMNSLKPEDTAVYYCASAYNPGVGYDYWGQGTQVTVSS
notes: Class 4 Nanobody (cross-reactive: anti-IL-17A, IL-17F and IL-17A/F); not shown: c-myc, His6 tag
B3: 03C07 (VHH)
VHH: EVQLVESGGGLVQAGGSLRLSCAASGFTFDDYAIGWFRQAPGKEREAVSCFSSSDGSIYYADSVKGRFTISSDNAKNTVYLQMNSLKPEDTAVYYCAGGGGSYYYTQLNYCYDMDYWGKGTQVTVSS
notes: as for B1
B4: 04G01 (VHH)
VHH: EVQLVESGGGLVQAGGSQRLSCTASGTIVNIHVMGWYRQAPGKQRELVALIFSGGSADYADSVKGRFTISRDNAKNTVYLEMNSLKAEDTAVYYCAAEIGYYSGGTYYSSEAHWGQGTQVTVSS
notes: Class 2 Nanobody (anti-IL-17A and IL-17A/F); also called IL17MS04G01; not shown: c-myc, His6 tag
B5: 11A06 (VHH)
VHH: EVQLVESGGGLVQPGESLRLSCKASGFSLDYYALGWFRQAPGKEREGISCITSSDASAYYTDSVKGRFTISRDNSKNTVYLQMNSLKTEDTAIYYCAAALLTCSSYYDAYTYWGQGTQVTVSS
notes: as for B1
B6: 01A01 (VHH)
VHH: EVQLVESGGGLVQAGGSLRLSCAASGFTFDDYDIGWFRQAPGKEREGVSCFTSSDGRTFYADSVKGRFTVSADNAKNTVYLQMNSLEPEDTAVYFCAAVNTFDESAYAAFACYDVVRWGQGTQVTVSS
notes: as for B2
B7: 02A08 (VHH)
VHH: EVQLVESGGGVVQPGGSLRLSCADSERSFSFNAMGWFRQAPGKEREFVAAISATGDDTYYADSVKGRFAISRDTARNTVYLQMNSLKPEDTAVYYCGARVNFDGTVSYTNDYAYWGQGTQVTVSS
notes: as for B1
B8: 13B05 (VHH)
VHH: EVQLVESGGRLVQAGGSLRLSCAASGRTFTSYPMGWFRQAPGKEREFVAAISMSGDDTAYTDFVRGRFTISRDDARNTVYLHMTSLKPEDTAVYYCAARTSYDGTYDYIDDYSYWGQGTQVTVSS
notes: as for B2
B9: 11C08 (VHH)
VHH: EVQLVESGGGLVQAGGSLRLSCAASGVIFRLNAMGWYRAAPGKQRELVAIIVNGGSTNYADSVKGRFTISRDSAKNAVYLQMNSLKPEDTAVYYCYYNIPGDVYWGQGTQVTVSS
notes: as for B2
B10: 06E11 (VHH)
VHH: EVQLVESGGGLVQAGGSLRLSCPVSGRAFSRGRLGWFRQAPGKEREFVAVAHWSGAITSYADSVKGRFTFSRDNAKNTMNLQMNSLKPEDTAVYYCAADSETSGNWVYWGQGTQVTVSS
notes: Class 3
B11: 07B11 (VHH)
VHH: EVQLVESGGGLVQAGGSLRLSCVASGRAFSSYVMGWFRQAPGMEREFVALIRWSDGITGYVDSVKGRFTISRDNAKNTVYLQMNSLKPEDTAVYYCAAAVRPGDYDYWGQGTQVTVSS
notes: Class 3
B12: 07B09 (VHH)
VHH: EVQLVESGGGLVQAGGSLRLSCGASGGTFSSYATGWFRQAPGKEREFVAVLRWSDGHTAYADSVKGRFTISRDGAKNTMYLQMSSLKPEDTAIYYCTTATRPGEWDYWGQGTQVTVSS
notes: Class 3
B13: 24G10 (VHH)
VHH: B12 VHH with S25A, L51F, G56S, M79L
notes: Class 3
B14: 08H01 (VHH)
VHH: B12 VHH with G56S, K65E, M79V, A99G, D106H
notes: Class 3
B15: 24B08 (VHH)
VHH: EVQLVESGGGLVQAGGSLRLSCAVSGGTFSTYKMGWFRQAPGKEREIVARISTNGPTAYAEFVKGRFTVSRENTKNTVYLQMNSLNIEDTAVYYCAAGYDSLFAGYDYWGQGTQVTVSS
notes: Class 3
B16: 04B09 (VHH)
VHH: EVQLVESGGGLVQPGGSLRLSCAASGFTLGYYAIGWFRQAPGKEREGVSCDSSSDGDTYYANSVKGRFTISTDNGKNTVYLQMNSLKPEDTAVYYCATCTDWNYDYWGQGTQVTVSS
notes: as for B1

molecular target: T5, human IL-17A (human, UniProt Q16552 24-155, biotinylated with Sulfo-NHS-LC-Biotin in the AlphaScreen assays only); experiment: cell-based or functional assay
T5 sequence (Q16552 other isoform, or with tags, fused parts or gaps): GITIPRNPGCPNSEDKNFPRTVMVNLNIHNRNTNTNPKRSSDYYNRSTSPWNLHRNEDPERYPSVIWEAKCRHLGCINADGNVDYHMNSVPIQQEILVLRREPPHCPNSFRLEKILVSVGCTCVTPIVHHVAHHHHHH

Row | Binder | IL-17A-induced IL-6 production in HT-1080 cells, Emax [%] | IL-17A-induced IL-6 production in HT-1080 cells, IC50 [nM]
1 | B1 | 99 | 4
2 | B2 | 101 | 12.3
3 | B3 | 101 | 4.2
4 | B4 | 113 | 5.4
5 | B5 | 98.5 | 4
6 | B6 | 104 | 2.7
7 | B7 | 103 | 8.8
8 | B8 | 104 | 14
9 | B9 | 73 | 130

molecular target: T6, human IL-17A/F heterodimer (human, UniProt Q16552 24-155; Q96PD4 31-163, limits assumed, biotinylated with Sulfo-NHS-LC-Biotin in the AlphaScreen assays only); experiment: cell-based or functional assay
T6 sequence (Q16552 24-155 limits assumed, chain 1 of 2, one chain of several): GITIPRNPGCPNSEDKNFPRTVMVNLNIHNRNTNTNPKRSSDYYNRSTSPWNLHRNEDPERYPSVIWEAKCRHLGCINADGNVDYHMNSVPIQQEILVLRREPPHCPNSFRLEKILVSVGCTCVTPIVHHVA

Row | Binder | IL-17A/F-induced IL-6 production in HT-1080 cells, Emax [%] | IL-17A/F-induced IL-6 production in HT-1080 cells, IC50 [nM]
10 | B1 | 108 | 22.2
11 | B4 | 104 | 34.7
12 | B5 | 106 | 28.1

molecular target: T1, rat IL-17F; experiment: ELISA, coated IL-17F;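 note: binding ELISA on coated antigen from various species, with bound Nanobodies revealed by an HRP-linked anti-myc antibody and esTMB substrate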
Method: (§1) Binding of a selected panel of anti-IL-17 Nanobodies to IL-17 of other species was assessed using a binding ELISA. […] HRP (horseradish peroxidase) conjugated anti-myc (Serotec, MCA 2200P) was used for detection using esTMB as substrate.

Row | Binder | OD [OD]
13 | B10 | 0.0085
14 | B11 | -0.0105
15 | B12 | 0.0025
16 | B13 | 0.0025
17 | B14 | 0.0045
18 | B15 | 0.0035

molecular target: T2, mouse IL-17F; experiment: ELISA, coated IL-17F;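 note: binding ELISA on coated antigen from various species, with bound Nanobodies revealed by an HRP-linked anti-myc antibody and esTMB substrate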
Method: as §1

Row | Binder | OD [OD]
19 | B10 | 0.0215
20 | B11 | -0.0005
21 | B12 | -0.0015
22 | B13 | -0.0005
23 | B14 | -0.0005
24 | B15 | -0.0015

molecular target: T7, human IL-17A (human, UniProt Q16552 24-155); experiment: ELISA, coated IL-17A
T7 construct: secreted form (GenBank U32659) expressed in Hek293 with C-terminal 6-His; also called hIL-17A; IL-17A-6HIS
T7 sequence (Q16552 other isoform, or with tags, fused parts or gaps): as the sequence (Q16552 other isoform, or with tags, fused parts or gaps) above
Method: as §1

Row | Binder | OD [OD]
25 | B11 | 0.03
26 | B12 | 0.005
27 | B13 | 0.009
28 | B15 | 0.103

Molecular target: T3, marmoset IL-17A
Experiment: ELISA, coated IL-17A
Method: as §1

Row | Binder | OD [OD]
29 | B12 | 0.005
30 | B15 | 0.129

molecular target: guinea pig IL-17A (guinea pig); experiment: ELISA, coated IL-17A
Method: as §1

Row | Binder | OD [OD]
31 | B10 | 0.006
32 | B11 | 0.007
33 | B12 | 0.009
34 | B13 | 0.008
35 | B14 | 0.007
36 | B15 | 0.012

molecular target: T5, human IL-17A; experiment: SPR Biacore, hIL-17A on chip; purified protein

Row | Binder | koff [s⁻¹]
37 | B1 | 0.00012
38 | B2 | 0.0016
39 | B3 | 0.0002
40 | B4 | 0.00018
41 | B5 | 0.00016
42 | B6 | 8.5e-05
43 | B7 | 0.00042
44 | B8 | 0.0003
45 | B9 | 0.0079

molecular target: T5, human IL-17A; experiment: AlphaScreen competition, hIL-17A - IL-17RC-Fc;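 note: Read-out after 1 h at room temperature with the receptor Fc-fusion, Acceptor beads and streptavidin-coated Donor beads present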
Method: (§2) To this mixture, the IL-17RA or IL-17RC Fc-fusions, Acceptor beads and the streptavidin Donor beads were added and further incubated for 1 hour at RT.

Row | Binder | IC50 [nM]
46 | B1 | 0.323
47 | B2 | 1.09
48 | B3 | 0.371
49 | B4 | 0.217
50 | B5 | 0.461
51 | B6 | 0.211
52 | B7 | 0.419
53 | B8 | 0.249
54 | B9 | 4.8

molecular target: T5, human IL-17A; experiment: AlphaScreen competition, hIL-17A - IL-17RA-Fc;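 note: receptor Fc-fusion plus Acceptor and streptavidin Donor beads incubated with the mixture for 1 h at room temperature before reading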
Method: as §2

Row | Binder | IC50 [nM]
55 | B1 | 0.046
56 | B2 | 0.159
57 | B3 | 0.084
58 | B4 | 0.014
59 | B5 | 0.081
60 | B6 | 0.051
61 | B7 | 0.126
62 | B8 | 0.118
63 | B9 | 2.12

molecular target: T6, human IL-17A/F heterodimer; experiment: SPR Biacore, hIL-17A/F on chip; purified protein

Row | Binder | koff [s⁻¹]
64 | B1 | 0.00013
65 | B4 | 0.00023
66 | B5 | 3.8e-05

molecular target: T4, human IL-17F; experiment: SPR Biacore, hIL-17F on chip; periplasmic extract (*); NB = no binding

Row | Binder | binding result
67 | B1 | no binding
68 | B16 | no binding
69 | B4 | no binding

molecular target: T6, human IL-17A/F heterodimer; experiment: AlphaScreen competition, hIL-17A/F - IL-17RC-Fc
Method: as §2

Row | Binder | IC50 [nM]
70 | B1 | 0.12
71 | B4 | 0.039
72 | B5 | 0.039

molecular target: T6, human IL-17A/F heterodimer; experiment: AlphaScreen competition, hIL-17A/F - IL-17RA-Fc
Method: as §2

Row | Binder | IC50 [nM]
73 | B1 | 0.101
74 | B4 | 0.067
75 | B5 | 0.14
